Data published in CN113939539A (BIOSION BIO TECH NANJING CO LTD, dated 2022).

Experiments:
[1] = target: T1, 重组人CSF-1R-his蛋白 (Acro biosystems, Cat#CSR-H5228) (human, UniProt P07333 20-512); test: BLI (Octet), antibody on AHC sensor, CSF-1R-his in solution
T1 construct: Bought protein; also called human CSF-1R-his; not shown: His tag

[2] = target: T2, 生物素标记的人CSF-1R-Fc蛋白 (human, biotin-labelled (sites not given)); test: capture ELISA: antibody captured by anti-human IgG, biotin-CSF-1R-Fc in solution
T2 construct: Made in-house; also called human CSF-1R-Fc

[3] = target: T3, 猴CSF-1R-his蛋白 (内部制备, SEQ ID NO: 62) (monkey (cynomolgus), UniProt P07333 20-517 (human entry), limits assumed); test: indirect ELISA on coated monkey CSF-1R-his
T3 construct: Made in-house, coated in the indirect ELISA; also called monkey CSF-1R-his (in-house)
T3 chain: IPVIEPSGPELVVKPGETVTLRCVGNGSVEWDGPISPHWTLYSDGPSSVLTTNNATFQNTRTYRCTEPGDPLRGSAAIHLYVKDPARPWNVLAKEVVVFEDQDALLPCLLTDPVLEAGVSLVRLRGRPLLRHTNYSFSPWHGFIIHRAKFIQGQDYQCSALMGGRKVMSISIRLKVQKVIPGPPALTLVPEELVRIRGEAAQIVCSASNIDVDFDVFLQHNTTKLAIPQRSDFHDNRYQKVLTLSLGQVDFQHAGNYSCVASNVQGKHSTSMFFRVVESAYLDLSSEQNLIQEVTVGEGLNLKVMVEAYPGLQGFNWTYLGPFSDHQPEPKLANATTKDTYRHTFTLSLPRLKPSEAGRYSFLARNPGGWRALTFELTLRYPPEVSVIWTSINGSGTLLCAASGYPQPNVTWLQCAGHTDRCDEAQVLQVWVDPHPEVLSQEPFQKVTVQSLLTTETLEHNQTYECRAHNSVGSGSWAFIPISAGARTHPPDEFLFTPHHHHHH

Measured: binding result

T1 sequence (P07333 20-512 limits assumed): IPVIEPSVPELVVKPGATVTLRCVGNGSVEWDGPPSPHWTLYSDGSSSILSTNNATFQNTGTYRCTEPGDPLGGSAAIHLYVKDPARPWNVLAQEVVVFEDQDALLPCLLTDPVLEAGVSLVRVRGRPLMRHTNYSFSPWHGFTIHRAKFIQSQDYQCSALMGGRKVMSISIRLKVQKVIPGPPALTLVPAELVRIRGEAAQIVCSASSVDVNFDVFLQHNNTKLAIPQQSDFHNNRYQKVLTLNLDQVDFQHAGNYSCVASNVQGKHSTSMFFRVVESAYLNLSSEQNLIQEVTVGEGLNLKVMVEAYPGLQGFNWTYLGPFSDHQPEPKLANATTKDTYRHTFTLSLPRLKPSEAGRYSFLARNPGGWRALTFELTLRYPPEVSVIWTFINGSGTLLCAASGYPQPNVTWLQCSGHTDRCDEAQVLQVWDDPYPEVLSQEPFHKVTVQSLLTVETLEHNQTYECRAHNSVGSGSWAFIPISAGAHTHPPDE
T2 sequence (chain, as listed by the source limits assumed): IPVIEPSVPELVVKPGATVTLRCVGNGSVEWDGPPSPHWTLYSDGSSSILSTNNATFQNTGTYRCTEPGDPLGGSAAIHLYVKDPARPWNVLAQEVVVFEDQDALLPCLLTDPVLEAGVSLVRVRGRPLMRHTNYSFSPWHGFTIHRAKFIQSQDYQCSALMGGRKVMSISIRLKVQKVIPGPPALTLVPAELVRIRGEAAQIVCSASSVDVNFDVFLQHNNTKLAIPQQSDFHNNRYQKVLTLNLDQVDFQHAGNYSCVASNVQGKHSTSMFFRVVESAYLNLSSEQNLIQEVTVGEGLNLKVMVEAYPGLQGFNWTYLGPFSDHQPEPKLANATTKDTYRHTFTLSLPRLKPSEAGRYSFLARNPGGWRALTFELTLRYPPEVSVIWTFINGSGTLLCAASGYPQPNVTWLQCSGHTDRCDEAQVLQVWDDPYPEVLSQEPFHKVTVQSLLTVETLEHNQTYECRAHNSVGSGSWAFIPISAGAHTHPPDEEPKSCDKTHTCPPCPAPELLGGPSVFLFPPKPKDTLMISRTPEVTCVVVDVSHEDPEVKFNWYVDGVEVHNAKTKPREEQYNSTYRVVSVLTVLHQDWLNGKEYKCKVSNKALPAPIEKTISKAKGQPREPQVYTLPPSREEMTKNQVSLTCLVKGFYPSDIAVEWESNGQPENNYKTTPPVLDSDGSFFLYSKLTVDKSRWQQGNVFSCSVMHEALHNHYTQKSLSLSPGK

B1: 卡比利珠单抗 (antibody, human IgG4 S228P, kappa, V domains shown)
VH: QVQLVQSGAEVKKPGSSVKVSCKASGYTFTDNYMIWVRQAPGQGLEWMGDINPYNGGTTFNQKFKGRVTITADKSTSTAYMELSSLRSEDTAVYYCARESPYFSNLYVMDYWGQGTLVTVSS
VL: NIVLTQSPATLSLSPGERATLSCKASQSVDYDGDNYMNWYQQKPGQAPRLLIYAASNLESGIPARFSGSGSGTDFTLTISSLEPEDFAVYYCHLSNEDLSTFGGGTKVEIKR
notes: Made in-house; also called Cabiralizumab; 对照基准物
binds: all assays above
